Source: patent publication US10053716B2, “4-amino cinnamic acid production method using enzyme” (JAPAN SCIENCE AND TECHNOLOGY AGENCY, priority 2014, dated 2018)

What was measured:
Assay type in all cases: biochemical
[1] = PAL activity of Escherichia coli recombinant enzyme crude extract; conditions: crude extract, NST37(DE) host, 20 mM phenylalanine
Method: (§1) [Measurement of Enzyme Activity of Escherichia coli Recombinant Enzyme Crude Extract]
(§2) Escherichia coli was inoculated into 5 ml of LB medium containing 100 mg/L ampicillin sodium or 100 mg/L kanamycin sulfate, and cultured overnight at 37° C. It was then inoculated into 200 ml of the same culture medium and cultured to an O.D. of 0.6, isopropyl-β-thiogalactopyranoside (IPTG) was added to a final concentration of 0.5 mM, and culturing was conducted for 12 hours at 28° C.
(§3) The cultured cells were collected and suspended in 20 mM potassium phosphate buffer (pH 7.5) and subjected to ultrasonic disruption and the supernatant was used as a crude extract for activity measurement. The enzyme activity was measured and quantified by measuring the absorbance at the absorption wavelength of the reaction product using a spectrophotometer, for a period of 5 minutes. For PAL activity, the crude extract was added to 100 mM Tris Buffer (pH 8.0) and 20 mM phenylalanine, reaction was conducted, and production of cinnamic acid was measured by the change in absorbance at a wavelength of 290 nm, while for 4APAL activity, 20 mM 4-aminophenylalanine was used as substrate and the absorbance at a wavelength of 315 nm due to 4-aminocinnamic acid was measured and quantified.

[2] = 4APAL activity of Escherichia coli recombinant enzyme crude extract; conditions: crude extract, NST37(DE) host, 20 mM 4-aminophenylalanine
Method: as §1, §2, §3

[3] = Km and kcat of recombinant purified enzyme for phenylalanine; conditions: purified His-tag enzyme
Method: (§4) [Measurement of Enzyme Activity of Escherichia coli Recombinant Purified Enzyme]
(§5) Escherichia coli was inoculated into 5 ml of LB medium containing 100 mg/L ampicillin sodium or 100 mg/L kanamycin sulfate, and cultured overnight at 37° C. It was then used to inoculate 200 ml of the same culture medium and cultured to an O.D of 0.6, IPTG was added to a final concentration of 0.5 mM, and the incubation was continued for 12 hours at 28° C. The rotational speed during cultures was 120 rpm. The cultured cells were collected and suspended in 20 mM potassium phosphate buffer (pH 7.5) and subjected to ultrasonic disruption, and after centrifugal separation, the supernatant was purified using a His-Trap column and the enzyme activity was measured. The method of measuring the enzyme activity was according to the method for the crude extract described above.
(§6) Since pET28AtPAL4 and its mutants and RgPAL were produced as fusion proteins with His-tag in the Escherichia coli of Example 3, these enzymes could be easily purified using an affinity column. After culturing the producing cells, the cells were collected, disrupted and purified. The purified enzymes were used to calculate the Km values and kcat values.

[4] = Km and kcat of recombinant purified enzyme for 4-aminophenylalanine; conditions: purified His-tag enzyme
Method: as §4, §5, §6

AtPAL4: PAL derived from the plant Arabidopsis thaliana, amino acid sequence SEQ ID NO: 4
PAL activity [1]: 0.18 µmol/min/mg | 4APAL activity [2]: 0.012 µmol/min/mg | Kcat value, Phenylalanine [3]: 5.1 s⁻¹ | Kcat value, 4-Aminophenylalanine [4]: >0.40 s⁻¹ | Km [4]: > 40 mM
